Reference: publication PMC8696033

How the values were obtained:
[1] = biological target: WT murine C3b (mouse); assay: SPR; WT murine C3b amine coupled on a CM5 chip; 2-fold dilution series of the FH protein flowed over in duplicate, 30 µl/min; HBST (10 mM HEPES, 150 mM NaCl, 0.005% Tween 20, pH 7.4); steady-state model
[2] = biological target: WT murine C3b (mouse)
[3] = biological target: mouse homodimeric minimal factor H (mHDM-FH, mFH^1–5^18–20^R1–2) (mouse) (UniProt P06909); assay: SEC; analytical size exclusion gel filtration; elution volume compared with mFLFH and mini-mFH

Substance “Mouse full length Factor H (mFLFH) (from UniProt P06909 19-1234) (natural protein)” has a Kd [1] of 1700 nM.
In the case of “mouse homodimeric minimal factor H (mHDM-FH, mFH^1–5^18–20^R1–2) (from UniProt P06909 19-321; P06909 1050-1234; Q61406 24-152)”, the IC50 of protection of sheep erythrocytes from lysis by mouse serum (haemolysis assay) [2] is reported as 8 nM, the stoichiometry N [3] is reported as 2 and the Kd [1] is reported as 500 nM.
